Substrate: Acetylcholine
Details: pH 7; 22 °C

Protein	Km	kcat	kcat/Km
unnamed (protein) MRPPWYPLHTPSLAFPLLFLLLSLLGGGARAEGREDPQLLVRVRGGQLRGIRLKAPGGPVSAFLGIPFAEPPVGSRRFMPPEPKRPWSGVLDATTFQNVCYQYVDTLYPGFEGTEMWNPNRELSEDCLYLNVWTPYPRPASPTPVLIWIYGGGFYSGAASLDVYDGRFLAQVEGAVLVSMNYRVGTFGFLALPGSREAPGNVGLLDQRLALQWVQENIAAFGGDPMSVTLFGESAGAASVGMHILSLPSRSLFHRAVLQSGTPNGPWATVSAGEARRRATLLARLVGCPPGGAGGNDTELIACLRTRPAQDLVDHEWHVLPQESILRISFVPVVDGDFLSDTPEALINTGDFQDLQVLVGVVKDEGSAFLVYGVPGFSKDNESLISRAQFLAGVRIGVPQASDLAAEAVVLHYTDWLHPEDPTHLRDAMSAVVGDHNVVCPVAQLAGRLAAQGARVYAYIFEHRASTLTWPLWMGVPHGYEIEFIFGLPLDPSLNYTTEERIFAQRLMKYWTNFARTGDPNDPRDSKSPQWPPYTTAAQQYVSLNLKPLEVRRGLRAQTCAFWNRFLPKLLSATDTLDEAERQWKAEFHRWSSYMVHWKNQFDHYSKQERCSDL	69 µM	250 s⁻¹	3.62e+06 M⁻¹ s⁻¹
unnamed (protein) MRPPWYPLHTPSLAFPLLFLLLSLLGGGARAEGREDPQLLVRVRGGQLRGIRLKAPGGPVSAFLGIPFAEPPVGSRRFMPPEPKRPWSGVLDATTFQNVCYQYVDTLYPGFEGTEMWNPNRELSEDCLYLNVWTPYPRPASPTPVLIWIYGGGFYSGAASLDVYDGRFLAQVEGAVLVSMNYRVGTFGFLALPGSREAPGNVGLLDQRLALQWVQENIAAFGGDPMSVTLFGESAGAASVGMHILSLPSRSLFHRAVLQSGTPNGPWATVSAGEARRRATLLARLVGCPPGGAGGNDTELIACLRTRPAQDLVDHEWHVLPQESILRFSFVPVVDGDFLSDTPEALINTGDFQDLQVLVGVVKDEGSAALVYGVPGFSKDNESLISRAQFLAGVRIGVPQASDLAAEAVVLHYTDWLHPEDPTHLRDAMSAVVGDHNVVCPVAQLAGRLAAQGARVYAYIFEHRASTLTWPLWMGVPHGYEIEFIFGLPLDPSLNYTTEERIFAQRLMKYWTNFARTGDPNDPRDSKSPQWPPYTTAAQQYVSLNLKPLEVRRGLRAQTCAFWNRFLPKLLSATDTLDEAERQWKAEFHRWSSYMVHWKNQFDHYSKQERCSDL	150 µM	283 s⁻¹	1.89e+06 M⁻¹ s⁻¹
unnamed (protein) MRPPWYPLHTPSLAFPLLFLLLSLLGGGARAEGREDPQLLVRVRGGQLRGIRLKAPGGPVSAFLGIPFAEPPVGSRRFMPPEPKRPWSGVLDATTFQNVCYQYVDTLYPGFEGTEMWNPNRELSEDCLYLNVWTPYPRPASPTPVLIWIYGGGFYSGAASLDVYDGRFLAQVEGAVLVSMNYRVGTFGFLALPGSREAPGNVGLLDQRLALQWVQENIAAFGGDPMSVTLFGESAGAASVGMHILSLPSRSLFHRAVLQSGTPNGPWATVSAGEARRRATLLARLVGCPPGGAGGNDTELIACLRTRPAQDLVDHEWHVLPQESIFRISFVPVVDGDFLSDTPEALINTGDFQDLQVLVGVVKDEGSAFLVYGVPGFSKDNESLISRAQFLAGVRIGVPQASDLAAEAVVLHYTDWLHPEDPTHLRDAMSAVVGDHNVVCPVAQLAGRLAAQGARVYAYIFEHRASTLTWPLWMGVPHGYEIEFIFGLPLDPSLNYTTEERIFAQRLMKYWTNFARTGDPNDPRDSKSPQWPPYTTAAQQYVSLNLKPLEVRRGLRAQTCAFWNRFLPKLLSATDTLDEAERQWKAEFHRWSSYMVHWKNQFDHYSKQERCSDL	340 µM	233 s⁻¹	686000 M⁻¹ s⁻¹
unnamed (protein) MRPPWYPLHTPSLAFPLLFLLLSLLGGGARAEGREDPQLLVRVRGGQLRGIRLKAPGGPVSAFLGIPFAEPPVGSRRFMPPEPKRPWSGVLDATTFQNVCYQYVDTLYPGFEGTEMWNPNRELSEDCLYLNVWTPYPRPASPTPVLIWIYGGGFYSGAASLDVYDGRFLAQVEGAVLVSMNYRVGTFGFLALPGSREAPGNVGLLDQRLALQWVQENIAAFGGDPMSVTLFGESAGAASVGMHILSLPSRSLFHRAVLQSGTPNGPWATVSAGEARRRATLLARLVGCPPGGAGGNDTELIACLRTRPAQDLVDHEWHVLPQESILRASFVPVVDGDFLSDTPEALINTGDFQDLQVLVGVVKDEGSAFLVYGVPGFSKDNESLISRAQFLAGVRIGVPQASDLAAEAVVLHYTDWLHPEDPTHLRDAMSAVVGDHNVVCPVAQLAGRLAAQGARVYAYIFEHRASTLTWPLWMGVPHGYEIEFIFGLPLDPSLNYTTEERIFAQRLMKYWTNFARTGDPNDPRDSKSPQWPPYTTAAQQYVSLNLKPLEVRRGLRAQTCAFWNRFLPKLLSATDTLDEAERQWKAEFHRWSSYMVHWKNQFDHYSKQERCSDL	190 µM	183 s⁻¹	965000 M⁻¹ s⁻¹
unnamed (protein) MRPPWYPLHTPSLAFPLLFLLLSLLGGGARAEGREDPQLLVRVRGGQLRGIRLKAPGGPVSAFLGIPFAEPPVGSRRFMPPEPKRPWSGVLDATTFQNVCYQYVDTLYPGFEGTEMWNPNRELSEDCLYLNVWTPYPRPASPTPVLIWIYGGGFYSGAASLDVYDGRFLAQVEGAVLVSMNYRVGTFGFLALPGSREAPGNVGLLDQRLALQWVQENIAAFGGDPMSVTLFGESAGAASVGMHILSLPSRSLFHRAVLQSGTPNGPWATVSAGEARRRATLLARLVGCPPGGAGGNDTELIACLRTRPAQDLVDHEWHVLPQESIFRLSFVPVVDGDFLSDTPEALINTGDFQDLQVLVGVVKDEGSAFLVYGVPGFSKDNESLISRAQFLAGVRIGVPQASDLAAEAVVLHYTDWLHPEDPTHLRDAMSAVVGDHNVVCPVAQLAGRLAAQGARVYAYIFEHRASTLTWPLWMGVPHGYEIEFIFGLPLDPSLNYTTEERIFAQRLMKYWTNFARTGDPNDPRDSKSPQWPPYTTAAQQYVSLNLKPLEVRRGLRAQTCAFWNRFLPKLLSATDTLDEAERQWKAEFHRWSSYMVHWKNQFDHYSKQERCSDL	100 µM	667 s⁻¹	6.67e+06 M⁻¹ s⁻¹
unnamed (protein) MRPPWYPLHTPSLAFPLLFLLLSLLGGGARAEGREDPQLLVRVRGGQLRGIRLKAPGGPVSAFLGIPFAEPPVGSRRFMPPEPKRPWSGVLDATTFQNVCYQYVDTLYPGFEGTEMWNPNRELSEDCLYLNVWTPYPRPASPTPVLIWIYGGGFYSGAASLDVYDGRFLAQVEGAVLVSMNYRVGTFGFLALPGSREAPGNVGLLDQRLALQWVQENIAAFGGDPMSVTLFGESAGAASVGMHILSLPSRSLFHRAVLQSGTPNGPWATVSAGEARRRATLLARLVGCPPGGAGGNDTELIACLRTRPAQDLVDHEWHVLPQESIFRFSFVPVVDGDFLSDTPEALINTGDFQDLQVLVGVVKDEGSYFLVYGVPGFSKDNESLISRAQFLAGVRIGVPQASDLAAEAVVLHYTDWLHPEDPTHLRDAMSAVVGDHNVVCPVAQLAGRLAAQGARVYAYIFEHRASTLTWPLWMGVPHGYEIEFIFGLPLDPSLNYTTEERIFAQRLMKYWTNFARTGDPNDPRDSKSPQWPPYTTAAQQYVSLNLKPLEVRRGLRAQTCAFWNRFLPKLLSATDTLDEAERQWKAEFHRWSSYMVHWKNQFDHYSKQERCSDL	47 µM	2500 s⁻¹	5.32e+07 M⁻¹ s⁻¹
unnamed (protein) MRPPWYPLHTPSLAFPLLFLLLSLLGGGARAEGREDPQLLVRVRGGQLRGIRLKAPGGPVSAFLGIPFAEPPVGSRRFMPPEPKRPWSGVLDATTFQNVCYQYVDTLYPGFEGTEMWNPNRELSEDCLYLNVWTPYPRPASPTPVLIWIYGGGFYSGAASLDVYDGRFLAQVEGAVLVSMNYRVGTFGFLALPGSREAPGNVGLLDQRLALQWVQENIAAFGGDPMSVTLFGESAGAASVGMHILSLPSRSLFHRAVLQSGTPNGPWATVSAGEARRRATLLARLVGCPPGGAGGNDTELIACLRTRPAQDLVDHEWHVLPQESIFRFSFVPVVDGDFLSDTPEALINTGDFQDLQVLVGVVKDEGSAALVYGVPGFSKDNESLISRAQFLAGVRIGVPQASDLAAEAVVLHYTDWLHPEDPTHLRDAMSAVVGDHNVVCPVAQLAGRLAAQGARVYAYIFEHRASTLTWPLWMGVPHGYEIEFIFGLPLDPSLNYTTEERIFAQRLMKYWTNFARTGDPNDPRDSKSPQWPPYTTAAQQYVSLNLKPLEVRRGLRAQTCAFWNRFLPKLLSATDTLDEAERQWKAEFHRWSSYMVHWKNQFDHYSKQERCSDL	150 µM	650 s⁻¹	4.33e+06 M⁻¹ s⁻¹
unnamed (protein) MRPPWYPLHTPSLAFPLLFLLLSLLGGGARAEGREDPQLLVRVRGGQLRGIRLKAPGGPVSAFLGIPFAEPPVGSRRFMPPEPKRPWSGVLDATTFQNVCYQYVDTLYPGFEGTEMWNPNRELSEDCLYLNVWTPYPRPASPTPVLIWIYGGGFYSGAASLDVYDGRFLAQVEGAVLVSMNYRVGTFGFLALPGSREAPGNVGLLDQRLALQWVQENIAAFGGDPMSVTLFGESAGAASVGMHILSLPSRSLFHRAVLQSGTPNGPWATVSAGEARRRATLLARLVGCPPGGAGGNDTELIACLRTRPAQDLVDHEWHVLPQESIARFSFVPVVDGDFLSDTPEALINTGDFQDLQVLVGVVKDEGSAFLVYGVPGFSKDNESLISRAQFLAGVRIGVPQASDLAAEAVVLHYTDWLHPEDPTHLRDAMSAVVGDHNVVCPVAQLAGRLAAQGARVYAYIFEHRASTLTWPLWMGVPHGYEIEFIFGLPLDPSLNYTTEERIFAQRLMKYWTNFARTGDPNDPRDSKSPQWPPYTTAAQQYVSLNLKPLEVRRGLRAQTCAFWNRFLPKLLSATDTLDEAERQWKAEFHRWSSYMVHWKNQFDHYSKQERCSDL	76 µM	333 s⁻¹	4.39e+06 M⁻¹ s⁻¹
unnamed (protein) MRPPWYPLHTPSLAFPLLFLLLSLLGGGARAEGREDPQLLVRVRGGQLRGIRLKAPGGPVSAFLGIPFAEPPVGSRRFMPPEPKRPWSGVLDATTFQNVCYQYVDTLYPGFEGTEMWNPNRELSEDCLYLNVWTPYPRPASPTPVLIWIYGGGFYSGAASLDVYDGRFLAQVEGAVLVSMNYRVGTFGFLALPGSREAPGNVGLLDQRLALQWVQENIAAFGGDPMSVTLFGQSAGAASVGMHILSLPSRSLFHRAVLQSGTPNGPWATVSAGEARRRATLLARLVGCPPGGAGGNDTELIACLRTRPAQDLVDHEWHVLPQESILRFSFVPVVDGDFLSDTPEALINTGDFQDLQVLVGVVKDEGSAFLVYGVPGFSKDNESLISRAQFLAGVRIGVPQASDLAAEAVVLHYTDWLHPEDPTHLRDAMSAVVGDHNVVCPVAQLAGRLAAQGARVYAYIFEHRASTLTWPLWMGVPHGYEIEFIFGLPLDPSLNYTTEERIFAQRLMKYWTNFARTGDPNDPRDSKSPQWPPYTTAAQQYVSLNLKPLEVRRGLRAQTCAFWNRFLPKLLSATDTLDEAERQWKAEFHRWSSYMVHWKNQFDHYSKQERCSDL	100 µM	167 s⁻¹	1.67e+06 M⁻¹ s⁻¹
